Data taken from patent publication US20240132625A1.

Experiments:
[1] = biological target: HER2 ectodomain (biotinylated Her2/ERBB2, Sino Biological) (human) (UniProt P04626); assay: BLI, HER2 ectodomain immobilized on the sensor tip, antibody in half dilution from 500 nM, 1:1 fit
[2] = biological target: HER2 ectodomain (biotinylated Her2/ERBB2, Sino Biological) (human) (UniProt P04626); assay: BLI, HER2 ectodomain on tip; effective KD
[3] = biological target: HER2 ectodomain (biotinylated Her2/ERBB2, Sino Biological) (human) (UniProt P04626); assay: BLI, HER2 ectodomain immobilized on the sensor tip, antibody in half dilution from 250 nM, 1:1 fit
[4] = biological target: HER2 ectodomain (biotinylated Her2/ERBB2, Sino Biological) (human) (UniProt P04626); assay: BLI, antigen on streptavidin tip, 1:1 fit
[5] = biological target: HER2 ectodomain (biotinylated Her2/ERBB2, Sino Biological) (human) (UniProt P04626); assay: BLI, HER2 ectodomain on tip
[6] = biological target: CD20 immobilized on a sensor tip (UniProt P11836); assay: BLI, CD20 on tip
[7] = biological target: CD20 immobilized on a sensor tip (UniProt P11836); assay: BLI, human CD20 immobilized on the sensor tip, antibody in half dilution from 50 nM, 1:1 fit
CD20 on SU-DHL5 cells = CD20 on SU-DHL5 cells (UniProt P11836); assay: flow cytometry on SU-DHL5 cells, muGFP signal, 10 nM antibody
[8] = biological target: Receptor-binding domain of the SARS-CoV-2 spike protein (biotinylated, Acrobio system) (SARS-CoV-2) (UniProt P0DTC2); assay: BLI, antigen on streptavidin tip
[9] = biological target: Receptor-binding domain of the SARS-CoV-2 spike protein (biotinylated, Acrobio system) (SARS-CoV-2) (UniProt P0DTC2); assay: BLI, antigen on streptavidin tip, 1:1 fit
[10] = biological target: Receptor-binding domain of the SARS-CoV-2 spike protein (biotinylated, Acrobio system) (SARS-CoV-2) (UniProt P0DTC2); assay: BLI, antigen on streptavidin tip; below the instrument's limit
[11] = biological target: HER2 ectodomain (biotinylated Her2/ERBB2, Sino Biological) (human) (UniProt P04626); assay: BLI, […], antibody 6.25-50 nM, 1:1 fit
[12] = biological target: HER2 ectodomain (biotinylated Her2/ERBB2, Sino Biological) (human) (UniProt P04626); assay: BLI, […], antibody 3.1-[…], 1:1 fit
[13] = biological target: HER2 ectodomain (biotinylated Her2/ERBB2, Sino Biological) (human) (UniProt P04626); assay: BLI, antigen on streptavidin tip; below the instrument's limit
[14] = biological target: CD20 immobilized on a sensor tip (UniProt P11836); assay: BLI, CD20 on tip; effective KD
[15] = biological target: CD20 immobilized on a sensor tip (UniProt P11836); assay: BLI, […], antibody 6.25-50.0 nM, 1:1 fit

## SLy1(254-316)^(H)-Trastuzumab(N30A/H91A/Y100A)/HetFc (antibody)
[1]
  Kd: 373 nM

## SLy1(254-316)^(H)-Trastuzumab(N30A/H91A/Y100A)/HetFc-SDF-1α(8-67)^(H) (antibody)
[2]
  Kd: < 0.8 nM
[3]
  Kd: 0.8 nM
  koff: 5.8e-05 s⁻¹
  kon: 71000 M⁻¹ s⁻¹

## Trastuzumab(N30A/H91A) (antibody)
[4]
  Kd: 2.1 nM
  kon: 190000 M⁻¹ s⁻¹

## Trastuzumab(N30A/H91A/Y100A) (antibody)
[5]
  Kd: 243 nM

## Obinutuzumab(Y101L) (antibody)
[6]
  Kd: 30.4 nM
[7]
  koff: 0.01 s⁻¹
  kon: 330000 M⁻¹ s⁻¹

## SLy1(254-316)^(H)-Obinutuzumab(F101L)/HetFc-SDF-1α(8-67)^(H) labeled with muGFP at the C-terminus of the light chain (antibody)
CD20 on SU-DHL5 cells
  percent bound to SU-DHL5 cells at 10 nM: 90%

## glCV30-SDF-1α(8-67)^(H) (antibody)
[8]
  fold increase of binding avidity over glCV30: > 130 fold
[9]
  kon: 770000 M⁻¹ s⁻¹
[10]
  Kd: < 0.01 nM

## Trastuzumab(N30A/H91A)-SDF-1α(8-67)^(L) (antibody)
[2]
  Kd: < 0.01 nM
[11]
  koff: < 1e-07 s⁻¹
  kon: 189000 M⁻¹ s⁻¹

## Trastuzumab(N30A/H91A)-SDF-1α(8-67)^(H) (antibody)
[4]
  kon: 290000 M⁻¹ s⁻¹
[12]
  kon: 310000 M⁻¹ s⁻¹
[13]
  Kd: < 0.01 nM

## SLy1(254-316)^(H)-Obinutuzumab(Y101L)/HetFc-SDF-1α(8-67)^(H) (antibody)
[14]
  Kd: 0.13 nM
[15]
  koff: 2.3e-05 s⁻¹
  kon: 180000 M⁻¹ s⁻¹

## Trastuzumab(N30A/H91A)-HomoCC^(H) (antibody)
[2]
  Kd: < 0.01 nM
